Results published in article PMC9935904.

Molecular target: Lathyrus sativus β-L-ODAP synthase (LsBOS), N-terminal His-tag (Lathyrus sativus)
Test: SPR; Biacore 8K, CM5 chip; LsBOS amine-coupled (~1700 response), LsAAE3 as analyte; single cycle kinetics at 2.4, 12, 60, 300 and 1500 nM; 10 mM Hepes pH 7.4, 150 mM NaCl, 0.05 % tween 20, 25 °C; simple Langmuir binding model

Kd: 98 nM
koff: 0.000361 s⁻¹
kon: 3670 M⁻¹ s⁻¹
stoichiometry N: 1
Substance: Lathyrus sativus acyl-activating enzyme 3 (LsAAE3), N-terminal His-tag
